Results reported in patent US20230330196A1, “IMMUNOSUPPRESSIVE AGENTS” (The Trustees of Columbia University in the City of New York, priority 2020, published 2023).

Target: T1, PD-1H (Homo sapiens, UniProt Q9H7M9)
T1 construct: Flag (N); expressed in transfected cells; host or cells: HEK293
Assay: Co-immunoprecipitation of c-myc tagged MMP-13 constructs with Flag-PD-1H in HEK293 cells
Type: binding
Conditions: HEK293 cells co-transfected with Flag-PD-1H; IP with anti-c-myc; FIG. 5A
Experimental: To identify key binding domains between PD-1H and MMP-13, a series of truncated deletion mutants was tested. The MMP-13 zymogen has a pro-peptide domain (aa 20-103) that maintains latency, a catalytic domain (aa 103-268) containing the catalytic zinc-binding motif, and a hinge linker region (aa 269-280) that connects the catalytic domain region with the C-terminal hemopexin domain (aa 281-471).
WCL were analyzed as input. […].

B1: Hem: MMP-13 truncation mutant containing the hemopexin domain (delta aa 37-267) (protein)
chain: LPLPSGGDEDDLSEEDLPGDEDPNPKHPKTPDKCDPSLSLDAITSLRGETMIFKDRFFWRLHPQQVDAELFLTKSFWPELPNRIDAAYEHPSHDLIFIFRGRKFWALNGYDILEGYPKKISELGLPKEVKKISAAVHFEDTGKTLLFSGNQVWRYDDTNHIMDKDYPRLIEEDFPGIGDKVDAVYEKNGYIYFFNGPIQFEYSIWSNRIVRVMPANSILWC
modifications: left off: small tags and cut ends
  binding to PD-1H (co-IP): retained only a fraction of the wild-type binding activity
